Substitutions are numbered along the chain they refer to. Names may count otherwise.
B1: KGD: alpha-ketoglutarate decarboxylase (kgd) from Mycobacterium tuberculosis, penta-histidine tag, purified (protein, listed as Mycobacterium tuberculosis)
chain: MNLRGTAARRRHRATGDTLDARQLVRQQLRQLQTETRPGALVRWFLLDPKELFDIFVTIQGFTQTTTRQRRQLLQTHNCQIITVVFRLACRQFIIQLTGGQQNTANFIAVADTILVGRFLQDATEFNLGKILNLRNRRLVAQHGFRGKHDQRTLDAVQRVAAQQVKVIGRGARHRDRHATLSPQLQKALNARRRVVRALTLVAVWQQQNNVGQLTPFRFARADELVNDRLGTINKVAELRLPQHNRVWIANGITVLKTHSRVFRQRRIINQELTTGRAAVAVSRQQLQRGELLAGVTVDQHRMTLAKGATTRVLTAQTDQLALSNQAAQRQQLTKRPVNLTLIRHLTTLFQHRLNARVCRETVRQRQEGITDTCQQGFVNSGRQARWDHLVRLDALRRLDAVLLQFAHFVEHTLQLALVIAQRILRLFHADVATTDQSLGVGFTGATLGVHDVIDIRIGHRWIVTLIMTTTTIAQHVNNNVLFKALAEVNCQTRNPDTRFWIVAVHVEDWRTDHLRHIRAVLARTRVFRSGGEADLVVHNDVNRTTHTIARQICQIQRLRNNALTREGRITVQHQRNDGECTLAVGVNGTVVQQVLLRTHQTFQHWIDRFQMGRICRQGNLNIVIAKHLQIQTRRTQVVLDIAGTVSLGRVQIAFKLRKDLRIRFAHDVRQDIQATTVRHANDHFIQTMLGTLVNRRVHHWNNRFRTLQAKTLLAHILGLQEGFKRLRCVQFRQDVLLLSNGRFDVLRLDTLLQPLLLFRVQNVRVLNTDVTAVRVAQQTQHVTQLFVLSTRETVNLKDAVQVPQSQAMRQHLQIRMRTKARLIQAQRVGVRHQMAAVAIGRDQVHHTCVLVNDRVRIIGAPTHWQVRDAQLAEDLIPEAIRQQQFMNGTQEVTAFRTLNDTVVVGRSQGNQFANTQLSDAFLGRALELRRIFHRTDTDDSTLTWHQAWHRVHRANRARIRQRNRNASEVLGGQFTITSTTDDVLVRGNELREAHRLATFDTGHHQRALAIFTLQVNSQTQIGVRRSNRRRLTVHLRVVAIHIRELLNRLNQSITQQMGKADFTTTRAFQLIIDHDTIIDQQFRWHSTHRGRRRHFQRRAHVLHDSSRRTTQDSNFIAFGWRRHRGLGGQSRHDTVARCGRVGRFRRRLRSRRCRTLSDQRAGHTSRLSSRLGSRLRAIVHQKLMPAWVNGRRIITKFTIHTNTRRVLSHHGYISFLKNSISQRQGRHKIYSKCIINTDNIL
modifications: penta-histidine tag
notes: alpha-ketoglutarate decarboxylase (kgd) from Mycobacterium tuberculosis, penta-histidine tag, purified
B2: Mutant Oad 1: variant of Leuconostoc mesenteroides oad with mutations N45T, R249L, D302G, V418A and L476Q (protein)
chain: MTDTLTFNTKHLLEALFESGIRHFIVSPGSRSTPIALLLAEYAEQTNEIKLFVDVDERSAGFFALGIAKTLLEPVVLLGTSGTAIAEYMPAVAEAYAANIPLVVLSTDRPQELQFNGAPQTIPQSNLFGQLTKQAVLIRLQDMHSDVTEYIDFIVQKVVNLSITAPRGPIQINLPLRKPLMPVLDRQDEVHVQRVVFDKQSVQYRLPPITAKRLLILAGPNVLNSYDDSLKKFAIKNNVPVIADVLSQSLHTYTIHGIDVLLQAHKINADLKPDLVVRFGKTPVSARVLQWLKEENILTWHVGEDAGVDHTRHIVRAIKMAPHDFLESMHLTLSKNQIDFNQKWLSLPKVIKTRNEMNIITALDDAVPDDTHIFVANSMPIRDMDNFFTGNHTQRIYANRGANGIDGVISSALGMSAVAKQRSVLLTGDLTLFHDMNGLMMAKNYQLPLDIIVINNNGGGIFSFLPQAGAPKYFEQQFGTPLNIDIKKIADLYYIDYHQLNVPEALSQILQTPSKTTRLIEYKSDHQRNRDDHREVLEMLK
modifications: Leuconostoc mesenteroides
notes: variant of Leuconostoc mesenteroides oad with mutations N45T, R249L, D302G, V418A and L476Q
B3: Mutant Oad 3: variant of Leuconostoc mesenteroides oad with mutations R394C, D434G and T511A (protein)
chain: B2 chain with T46N, L250R, G303D, R395C, A419V, D435G, Q477L, T512A
modifications: Leuconostoc mesenteroides
notes: variant of Leuconostoc mesenteroides oad with mutations R394C, D434G and T511A
B4: Mutant Oad 2: variant of Leuconostoc mesenteroides oad with mutation T479N (protein)
chain: B2 chain with T46N, L250R, G303D, A419V, Q477L, T480N
modifications: Leuconostoc mesenteroides
notes: variant of Leuconostoc mesenteroides oad with mutation T479N

Key:
Type in all cases: biochemical
[1] = GC-MS analysis of 3-HP produced in the spectrophotometric assay samples
Method: A coupled assay was developed in order to biochemically assess the oxaloacetate alpha-decarboxylase activity of the candidate enzymes. The coupled assay used exogenously-added purified E. coli YdfG protein, which converts malonate semialdehyde to 3-HP with the concomitant conversion of NADPH to NADP^+ (FIG. 5). […] 3-HP is also detectable by standard analytical methods, for example HPLC and GS-MS. Assays were performed as 200 microliter reactions in a 96-well plate format using a Molecular Dynamics SpectraMax 384 microplate reader with SoftmaxPro software (Molecular Dynamics, Sunnyvale Calif.) to quantitate the rate of change in the 340 nm absorbance. […] The progress of each reaction was monitored for 20 minutes during which measurements were made every 20 seconds. […] Once the reaction time course was read and the slopes of each well were calculated, the specific activities over the negative control of each candidate protein were calculated. All values reported are the average specific activities measured in triplicate.
Activity of KGD was not measured by the spectrophotometric assay.
Conformation of 3-HP production as well as assessment of the pH dependence of each candidate enzyme was performed as described above, except that coupled reactions with YdfG were evaluated for 3-HP production by GC-MS. […]

[2] = GC-MS confirmation of 3-HP production and pH dependence of candidate enzymes (coupled reaction with YdfG); details: 3-HP by GC-MS at pH 5.5, pH 6.0 and pH 6.8; 5 mM oxaloacetate; 37° C., at least 12 hours
Method: Conformation of 3-HP production as well as assessment of the pH dependence of each candidate enzyme was performed as described above, except that coupled reactions with YdfG were evaluated for 3-HP production by GC-MS. Reaction conditions consisted of 50 mM PIPES pH 6.8, 2 mM thymidine pyrophosphate, 10 mM dithiothreitol, 4 mM magnesium chloride, 1 mM NADPH (EMD Bioscience), 0.075 mg/mL purified YdfG (Molecular Throughput), and 5 mM oxaloacetate (unless otherwise stated). All chemicals were obtained from Sigma-Aldrich unless otherwise stated. Reactions were performed at 0.6 mL volumes in triplicate and were initiated with the addition of 600 micrograms of purified protein. In addition, a negative control lacking protein was also performed with each set. Reactions were allowed to proceed at 37° C. for at least 12 hours. […] Soluble monomeric 3-HP is quantified using GC-MS after a single exaction with ethyl acetate from a reaction sample. […] A standard curve of known 3-HP concentrations is prepared at the beginning of the run and a known quantity of ketohexanoic acid (1 g/L) is added to both the standards and the samples to act as an internal standard for Quantitation, with tropic acid as an additional internal standard. […] 3-HP is quantified using a 3HP standard curve at the beginning of the run and the data are analyzed using HP Chemstation. […]

[3] = Coupled spectrophotometric assay of oxaloacetate alpha-decarboxylase activity (purified YdfG, NADPH absorbance at 340 nm); details: for Average Specific Activity: oad variants versus native Oad in the spectrophotometric assay; for Fold Increase in oxaloacetate alpha-decarboxylase specific activity: relative to native (parent) Oad lacking mutations, in vitro
Method: A coupled assay was developed in order to biochemically assess the oxaloacetate alpha-decarboxylase activity of the candidate enzymes. The coupled assay used exogenously-added purified E. coli YdfG protein, which converts malonate semialdehyde to 3-HP with the concomitant conversion of NADPH to NADP^+ (FIG. 5). […] 3-HP is also detectable by standard analytical methods, for example HPLC and GS-MS. Assays were performed as 200 microliter reactions in a 96-well plate format using a Molecular Dynamics SpectraMax 384 microplate reader with SoftmaxPro software (Molecular Dynamics, Sunnyvale Calif.) to quantitate the rate of change in the 340 nm absorbance. All assays were conducted at 37° C., and the instrument was allowed to mix the plate for 1 second prior to each measurements. The progress of each reaction was monitored for 20 minutes during which measurements were made every 20 seconds. Reaction conditions consisted of 50 mM PIPES pH 6.8 (unless otherwise stated), 2 mM thymidine pyrophosphate, 10 mM dithiothreitol, 4 mM magnesium chloride, 1 mM NADPH (EMD Bioscience), 0.075 mg/mL purified YdfG (Molecular Throughput), and 5 mM oxaloacetate (unless otherwise stated). All chemicals were obtained from Sigma-Aldrich (St. Louis, Mo.) unless otherwise stated. Reactions were initiated with the addition of 10 microliters of concentrated purified protein to each reaction well. In addition, a negative control was performed with each experimental set to control for the rate of background NADPH oxidation. Once the reaction time course was read and the slopes of each well were calculated, the specific activities over the negative control of each candidate protein were calculated. All values reported are the average specific activities measured in triplicate.

| Molecule | Final [3HP] ([1]; Beginning [OAA] 5 mM, pH 6.8) [g/L] | 3-HP production confirmed by GC-MS ([1]; in the presence of 5 mM oxaloacetate) | pH of optimal activity [2] | Average Specific Activity [3] [units/mg] | Fold Increase in oxaloacetate alpha-decarboxylase specific activity [3] [fold] |
| --- | --- | --- | --- | --- | --- |
| B1 | 0.004 ± 0.001 | 3-HP was produced | 6.8 | – | – |
| B2 | – | – | – | 0.0121 | 1.6 |
| B3 | – | – | – | 0.0222 | 2.8 |
| B4 | – | – | – | 0.0173 | 2.2 |

Source: patent US8809027B1, “Genetically modified organisms for increased microbial production of 3-hydroxypropionic acid involving an oxaloacetate alpha-decarboxylase” (OPX Biotechnologies, Inc., priority 2009, dated 2014)
